US5851983A, “Elastase inhibitory polypeptide and process for production thereof by recombinant gene technology” (Teijin Limited, priority 1987, dated 1998)

Columns and labels:
[1] = target: T1, polymorphonuclear leucocyte elastase from human sputum (Homo sapiens, UniProt P08246); test: Assay for elastase inhibitor activity (Example 24); type: biochemical; settings: enzyme 2 × 10^-8 M, substrate 3.0 × 10^-4 M
T1 construct: Polymorphonuclear leukocyte elastase from human sputum (EPC Co; Funakoshi Yakuhin); purchased EPC Co. (via Funakoshi Yakuhin); host or cells: human sputum
T1 sequence (P08246 30-267): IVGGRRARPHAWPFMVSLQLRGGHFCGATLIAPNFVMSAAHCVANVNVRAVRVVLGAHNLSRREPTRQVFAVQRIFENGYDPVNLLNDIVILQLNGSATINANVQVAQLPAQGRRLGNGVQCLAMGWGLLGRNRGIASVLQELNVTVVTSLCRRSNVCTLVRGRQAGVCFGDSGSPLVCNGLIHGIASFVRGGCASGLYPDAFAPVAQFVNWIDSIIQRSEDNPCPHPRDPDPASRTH
Experimental: The following assay method was used.
Buffer: 0.1M (2-hydroxyethyl)piperazine-N'-2-ethansulfonic acid (HEPES), 0.5M NaCl, pH 7.5.
Enzyme concentration: the following enzyme was dissolved in the above-mentioned buffer to a concentration 9 times that shown in Table 12.
A. Polymorphonuclear leucocyte elastase from human sputum (EPC Co., Funakoshi Yakuhin)
Substrate solution: for the enzymes A, B, C, D and E, the following substrate a, b, c, d or e, respectively, was dissolved in a solution of DMSO+the above-mentioned buffer (1:9) (note, final concentration of DMSO was 10% in the buffer) to a concentration of 9 times that shown in Table 12.
a. MeO-Suc-Ala-Ala-Pro-Val-pNA (Bachem) […]
To wells of an ELISA 96-well microtiter plate, were added 120 μl of the buffer and the 20 μl of a sample solution of (Arg^59 -Ala^107) SLPI obtained in Example 23, followed by 20 μl of the enzyme solution. The mixture was reacted at 37° C. for 10 minutes. Next, 20 μl of the substrate was added, and developed at 37° C. The developed color was measured by absorption at 405 nm.
As a control the same procedure was carried out using SLPI.

[2] = target: T2, Human plasma thrombin (Homo sapiens, UniProt P00734); test: Assay for thrombin inhibitory activity (Example 25); type: biochemical; settings: final concentration up to ×10^-5 M; enzyme 3 × 10^-9 M
T2 construct: (5) Human plasma thrombin (Kabi, Daiichi Kagaku Yakuhin); purchased Kabi (via Daiichi Kagaku Yakuhin); host or cells: human plasma
Experimental: F. Human plasma thrombin (Sigma)
Buffer: Buffer solution for each enzyme is as follow. Thrombin and FXa: 50 mM Tris-HCl, 7.5 mM EDTA-2Na, 175 mM NaCl (pH 8.4) […]
(§1) Substrate solution: for the enzymes F, G, H and I, the following substrate f, g, h or i, respectively, was dissolved to a final concentration shown in Table 14.
f. H.D-Phe-Pip-Arg-pNA (Kabi Vitrum)
(§2) To wells of an ELISA 96-well microtiter plate, were added a solution of (Arg^59 -Ala^107) SLPI obtained in Example 23 and then the enzyme solution, and the mixture was incubated at 37° C. for 10 minutes. Next, the substrate solution was added to develop the color, whose absorption was then measured at 405 nm. As a control, SLPI was used.

[3] = target: T3, Human plasma kallikrein (Homo sapiens, UniProt P03952); test: Assay for kallikrein inhibitory activity (Example 25); type: biochemical; settings: final concentration up to ×10^-5 M; enzyme 1.0 × 10^-7 M
T3 construct: (7) Human plasma kallikrein (Kabi, Daiichi Kagaku Yakuhin); purchased Kabi (via Daiichi Kagaku Yakuhin); host or cells: human plasma
T3 sequence (P03952 391-638 limits assumed): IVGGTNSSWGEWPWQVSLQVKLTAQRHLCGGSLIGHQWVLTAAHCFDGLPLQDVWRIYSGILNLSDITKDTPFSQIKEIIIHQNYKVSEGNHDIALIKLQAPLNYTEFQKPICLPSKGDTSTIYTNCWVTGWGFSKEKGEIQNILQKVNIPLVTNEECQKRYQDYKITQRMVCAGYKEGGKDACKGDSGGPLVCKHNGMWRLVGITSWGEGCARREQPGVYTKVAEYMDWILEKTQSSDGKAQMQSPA
T3 sequence (P03952 20-390 partner limits assumed): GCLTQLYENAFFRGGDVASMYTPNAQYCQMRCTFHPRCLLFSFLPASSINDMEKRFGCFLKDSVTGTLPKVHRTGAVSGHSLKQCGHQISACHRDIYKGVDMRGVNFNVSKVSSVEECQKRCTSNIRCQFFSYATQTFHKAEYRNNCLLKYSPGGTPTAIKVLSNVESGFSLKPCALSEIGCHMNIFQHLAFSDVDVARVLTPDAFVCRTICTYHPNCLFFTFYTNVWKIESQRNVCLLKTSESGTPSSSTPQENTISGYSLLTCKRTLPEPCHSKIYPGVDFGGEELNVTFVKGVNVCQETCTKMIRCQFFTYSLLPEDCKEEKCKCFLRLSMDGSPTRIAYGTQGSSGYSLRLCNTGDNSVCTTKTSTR
Experimental: (§3) H. Human plasma kallikrein (Protogene, Funakoshi Yakuhin)
Kallikrein: 50 mM Tris-HCl, 361 mM NaCl, 0.01 mg/ml polybrene (pH 7.8) […]
as §1
(§4) h. H.D-Pro-Phe-Arg-pNA (Kabi Vitram)
as §2

[4] = target: T4, Human plasma plasmin (Homo sapiens, UniProt P00747); test: Assay for plasmin inhibitory activity (Example 36); type: biochemical; settings: final concentration up to ×10^-5 M; enzyme 1.0 × 10^-7 M
T4 construct: (6) Human plasma plasmin (Kabi, Daiichi Kagaku Yakuhin); purchased Kabi (via Daiichi Kagaku Yakuhin); host or cells: human plasma
T4 sequence (P00747 581-810 limits assumed): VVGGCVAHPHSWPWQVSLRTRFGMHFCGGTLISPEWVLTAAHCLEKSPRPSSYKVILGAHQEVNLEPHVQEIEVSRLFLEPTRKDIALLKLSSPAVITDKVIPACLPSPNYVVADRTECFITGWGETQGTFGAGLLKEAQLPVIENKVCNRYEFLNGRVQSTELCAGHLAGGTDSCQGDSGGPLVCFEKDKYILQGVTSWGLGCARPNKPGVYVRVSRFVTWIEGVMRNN
T4 sequence (P00747 97-580 partner limits assumed): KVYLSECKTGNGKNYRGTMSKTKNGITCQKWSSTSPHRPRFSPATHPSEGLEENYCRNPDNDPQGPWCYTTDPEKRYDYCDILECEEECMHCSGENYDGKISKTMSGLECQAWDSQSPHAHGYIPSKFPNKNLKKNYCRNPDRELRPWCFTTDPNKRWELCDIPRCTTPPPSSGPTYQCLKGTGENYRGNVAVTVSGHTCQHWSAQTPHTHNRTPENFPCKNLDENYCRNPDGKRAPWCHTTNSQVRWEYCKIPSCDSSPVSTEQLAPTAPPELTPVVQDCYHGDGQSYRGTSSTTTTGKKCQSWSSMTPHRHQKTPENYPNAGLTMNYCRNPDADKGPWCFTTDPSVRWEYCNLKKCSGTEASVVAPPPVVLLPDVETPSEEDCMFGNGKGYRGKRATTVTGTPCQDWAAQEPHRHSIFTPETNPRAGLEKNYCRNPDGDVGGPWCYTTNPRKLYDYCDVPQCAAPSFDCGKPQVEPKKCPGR
Experimental: G. Human plasma plasmin (sigma)
Plasmin: 50 mM Tris-HCl, 100 mM NaCl (pH 7.4) […]
(§5) Substrate solution: for the enzymes F, G, H and I, the following substrate f, g, h or i, respectively, was dissolved to a final concentration shown in Table 24.
g. H.D-Val-Leu-Lys-pNA (Kabi Vitrum)
as §2, with “(Arg^58” for “(Arg^59”, “34” for “23”

[5] = target: T3, Human plasma kallikrein; test: Assay for kallikrein inhibitory activity (Example 36); type: biochemical; settings: final concentration up to ×10^-5 M; enzyme 1.0 × 10^-7 M
Experimental: as §3
Kallikrein: 50 mM Tris-HCl, 361 mM NaCl, 0.01 mg/ml Polybrene (pH 7.8) […]
as §5, §4
as §2, with “(Arg^58” for “(Arg^59”, “34” for “23”

[6] = test system: Porcine FXa; test: Assay for Fxa inhibitory activity (Example 36); type: biochemical; settings: final concentration up to ×10^-5 M; enzyme 1.0 × 10^-8 M
Experimental: I. Porcine FXa (Daichi Seiyaku)
Thrombin and FXa: 50 mM Tris-HCl, 7.5 mM EDTA-2Na, 175 mM NaCl (pH 8.4) […]
as §5
i. Ratio 1:1 mixture of the following compounds: [drawing 6]
as §2, with “(Arg^58” for “(Arg^59”, “34” for “23”

[7] = target: elastase and trypsin; settings: R. C. Thompson et al., Proc. Natl. Acad. Sci. USA, 83, 6692; cited from earlier work

B1: SLPI: Human secretory leukoprotease inhibitor; recombinant SLPI of Reference Example 1 used as control (protein)
chain: SGKSFKAGVCPPKKSAQCLRYKKPECQSDWQCPGKKRCCPDTCGIKCLDPVDTPNPTRRKPGKCPVTYGQCLMLNPPNFCEMDGQCKRDLKCCMGMCGKSCVSPVKA
IC50 [1]: 13 nM | inhibitory activity to thrombin [2]: did not exhibit inhibitory activity | inhibitory activity to kallikrein [3]: did not exhibit inhibitory activity | inhibitory activity to plasmin [4]: did not exhibit inhibitory activity | inhibitory activity to kallikrein [5]: did not exhibit inhibitory activity | inhibitory activity to FXa [6]: did not exhibit inhibitory activity | Ki(E) compared with Ki(T) [7]: Ki(E) is roughly equivalent to Ki(T)
